Positions count from the first letter of the chain named. Names and notes keep the numbering of the source. One block for each binder: values may come before it.
Columns and labels:
[1] = target: T1, macaca GM-CSF (rhesus, Macaca mulatta; cynomolgus, Macaca fascicularis, identical sequence) (Macaca mulatta / Macaca fascicularis, UniProt Q0MUT8 18-144 (Chlorocebus aethiops entry), limits assumed); test: cell-based or functional assay
T1 chain: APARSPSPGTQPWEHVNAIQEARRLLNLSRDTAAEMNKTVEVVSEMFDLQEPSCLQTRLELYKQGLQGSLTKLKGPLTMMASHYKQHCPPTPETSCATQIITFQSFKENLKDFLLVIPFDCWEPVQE

[2] = target: T2, human GM-CSF I117 isoform (human, UniProt P04141 18-144); test: cell-based or functional assay
[3] = target: T3, human GM-CSF T117 isoform (human, UniProt P04141 18-144); test: cell-based or functional assay
[4] = target: T3, human GM-CSF T117 isoform; test: KinExA, affinity in solution; largest Kd ratio across the three GM-CSF targets, by Table 3 hGM-CSF T117 (174 pM) against hGM-CSF I117 (17 pM)
Protocol: (§1) The 4K21 and reference antibodies were incubated at concentration below the expected Kd with serial dilutions of human GM-CSF I117 or T117, or macaca GM-CSF up to equilibrium. The remaining free antibody was measured in a Kinetic exclusion assay with the KinExA® instrument. Kd was calculated by fitting the curve of the signal obtained versus the GM-CSF concentrations. The average of two experiments using different IgG concentrations was calculated.

[5] = target: T2, human GM-CSF I117 isoform; test: TF-1 proliferation assay and KinExA
Protocol: To determine potency and affinity of the antibody, Kd measurements and a proliferation bioassay of TF-1 cells were performed. TF-1 is an erythroleukemic cell line from blood, which proliferates in response to e.g. GM-CSF. Kd determination was carried out with the Kinetic Exclusion Assay (KinExA®; Sapidyne Instruments, Inc., Boise, Id., USA).

[6] = target: T1, macaca GM-CSF (rhesus, Macaca mulatta; …); test: KinExA, affinity in solution, average n = 2
Protocol: as §1

[7] = target: T2, human GM-CSF I117 isoform; test: KinExA, affinity in solution, average n = 2
Protocol: as §1

[8] = target: T3, human GM-CSF T117 isoform; test: KinExA, affinity in solution, average n = 2
Protocol: as §1

[9] = target: T1, macaca GM-CSF (rhesus, Macaca mulatta; …); test: cell-based or functional assay
[10] = target: T2, human GM-CSF I117 isoform; test: cell-based or functional assay; remark: listed apart in the source
[11] = target: T3, human GM-CSF T117 isoform; test: cell-based or functional assay; remark: listed apart in the source
[12] = target: T1, macaca GM-CSF (rhesus, Macaca mulatta; …); test: cell-based or functional assay
[13] = target: T3, human GM-CSF T117 isoform; test: cell-based or functional assay; remark: listed apart in the source
[14] = target: T2, human GM-CSF I117 isoform; test: cell-based or functional assay; remark: listed apart in the source
[15] = target: T3, human GM-CSF T117 isoform; test: cell-based or functional assay; remark: listed apart in the source
human GM-CSF A117 mutant = target: T4, human GM-CSF A117 mutant (human, UniProt P04141 18-144); test: competition ELISA: antibody binding to coated human GM-CSF, soluble human GM-CSF A117 as competitor (one condition, concentration not given)
T4 construct: also called hGM-CSF A117
Text: Detection of humanized parental anti-GM-CSF 4K21 binding to coated wild-type GM-CSF is competed away by soluble […]. Binding of all optimized 4K21 antibodies to the GM-CSF coated wells is not affected anymore by the presence of A117 protein in solution.

[16] = target: T1, macaca GM-CSF (rhesus, Macaca mulatta; …); test: KinExA, affinity in solution; largest Kd ratio across the three GM-CSF targets, by Table 3 macaca (11 pM) against hGM-CSF I117 (4 pM)
Protocol: as §1

B3: humanized parental anti-GM-CSF 4K21 VH3-07.1AL+VK2-A3.2 hIgG1 K antibody (MSB0010439) (antibody, V domains shown)
VH: EVQLVESGGGLVQPGGSLRLSCAASGFAFSAYDMSWVRQAPGKRLELVAYISSGGSSFYYPDTVKGRFTISRDNAKNSLYLQMNSLRAEDTAVYYCTRHLGFDYWGQGTLVTVSS
VL: DIVMTQSPLSLPVTPGEPASISCRSSQSLVNSNGNTYLHWYLQKPGQSPQLLIYKVSNRFSGVPDRFSGSGSGTDFTLKISRVEAEDVGVYYCSQSTHVPPTFGQGTKVEIK
notes: hIgG1 kappa; also called humanized parental 4K21 hVH hVL; humanized parental 4K21
Fold improvement of humanized parental 4K21 on macaca (TF-1 proliferation IC50) [1]: 1 fold
Fold macaca/human I117 (TF-1 proliferation IC50) [1]: 6.6 fold
IC50 (pM), inhibition of GM-CSF induced TF-1 proliferation (32 pM GM-CSF, average n = 3) [1]: 793 pM
Fold improvement of humanized parental 4K21 on I117 (TF-1 proliferation IC50) [2]: 1 fold
IC50 (pM), inhibition of GM-CSF induced TF-1 proliferation (32 pM GM-CSF, average n = 3) [2]: 121 pM
Fold human T117/I117 (TF-1 proliferation IC50) [3]: 11.6 fold
Fold improvement of humanized parental 4K21 on T117 (TF-1 proliferation IC50) [3]: 1 fold
IC50 (pM), inhibition of GM-CSF induced TF-1 proliferation (32 pM GM-CSF, average n = 3) [3]: 1400 pM
fold preference for GM-CSF I117 versus T117 [5]: > 10 fold
IC50 (pM), inhibition of GM-CSF induced IL-8 secretion in U937 cells (65 pM GM-CSF, n = 2) [9]: 1120 pM
IC50 (pM), inhibition of GM-CSF induced IL-8 secretion in U937 cells (65 pM GM-CSF, n = 2) [10]: 170 pM
IC50 (pM), inhibition of GM-CSF induced IL-8 secretion in U937 cells (65 pM GM-CSF, n = 2) [11]: 930 pM
fold less efficient neutralization than on human GM-CSF (TF-1 proliferation assay) [12]: < 10 fold
fold worse IC50 on T117 than on I117, CD11b upregulation in neutrophils [13]: 10 fold
Emax (%), inhibition of CD11b upregulation on neutrophils [14]: 65%
IC50 (nM), inhibition of CD11b upregulation on neutrophils [14]: 3.06 nM
Emax (%), inhibition of CD11b upregulation on neutrophils [15]: 68%
IC50 (nM), inhibition of CD11b upregulation on neutrophils [15]: 31.6 nM
Kd [6]: 0.063 nM
Kd [7]: 0.021 nM
Kd [8]: 0.164 nM

B4: 4K21 hVH S55K-T62S hVL S27eY-N28I-H34S-N53R-H93F (MSB0010629) (antibody, V domains shown)
VH: B3 VH with S56K, T63S
VL: B3 VL with S32Y, N33I, H39S, N58R, H98F
notes: Tested as IgG ('optimized 4K21 IgGs'); the humanized parent is hIgG1 kappa; also called optimized 4K21 antibody with S27eY; 4K21 (4K21 VH S55K-T62S VL S27eY-N28I-H34S-N53R-H93F)
Fold improvement of humanized parental 4K21 on macaca (TF-1 proliferation IC50) [1]: 19 fold
Fold macaca/human I117 (TF-1 proliferation IC50) [1]: 1.5 fold
IC50 (pM), inhibition of GM-CSF induced TF-1 proliferation (32 pM GM-CSF, average n = 3) [1]: 42 pM
Fold improvement of humanized parental 4K21 on I117 (TF-1 proliferation IC50) [2]: 4.4 fold
IC50 (pM), inhibition of GM-CSF induced TF-1 proliferation (32 pM GM-CSF, average n = 3) [2]: 28 pM
Fold human T117/I117 (TF-1 proliferation IC50) [3]: 1.6 fold
Fold improvement of humanized parental 4K21 on T117 (TF-1 proliferation IC50) [3]: 32 fold
IC50 (pM), inhibition of GM-CSF induced TF-1 proliferation (32 pM GM-CSF, average n = 3) [3]: 44 pM
IC50 (pM), inhibition of GM-CSF induced IL-8 secretion in U937 cells (65 pM GM-CSF, n = 2) [9]: 286 pM
IC50 (pM), inhibition of GM-CSF induced IL-8 secretion in U937 cells (65 pM GM-CSF, n = 2) [10]: 311 pM
IC50 (pM), inhibition of GM-CSF induced IL-8 secretion in U937 cells (65 pM GM-CSF, n = 2) [11]: 354 pM
binding result (human GM-CSF A117 mutant): binds

B5: 4K21 hVH S55K-T62S hVL N28I-H34S-N53R-H93F (MSB0010628) (antibody, V domains shown)
VH: B3 VH with S56K, T63S
VL: B3 VL with N33I, H39S, N58R, H98F
notes: Tested as IgG ('optimized 4K21 IgGs'); the humanized parent is hIgG1 kappa; also called optimized 4K21 antibody; 4K21 (4K21 VH S55K-T62S VL N28I-H34S-N53R-H93F)
Fold improvement of humanized parental 4K21 on macaca (TF-1 proliferation IC50) [1]: 11 fold
Fold macaca/human I117 (TF-1 proliferation IC50) [1]: 3.9 fold
IC50 (pM), inhibition of GM-CSF induced TF-1 proliferation (32 pM GM-CSF, average n = 3) [1]: 72 pM
Fold improvement of humanized parental 4K21 on I117 (TF-1 proliferation IC50) [2]: 6.6 fold
IC50 (pM), inhibition of GM-CSF induced TF-1 proliferation (32 pM GM-CSF, average n = 3) [2]: 18 pM
Fold human T117/I117 (TF-1 proliferation IC50) [3]: 1.2 fold
Fold improvement of humanized parental 4K21 on T117 (TF-1 proliferation IC50) [3]: 63 fold
IC50 (pM), inhibition of GM-CSF induced TF-1 proliferation (32 pM GM-CSF, average n = 3) [3]: 22 pM
fold affinity difference between the 2 hGM-CSF isoforms and the macaca ortholog [16]: < 3 fold
IC50 (pM), inhibition of GM-CSF induced IL-8 secretion in U937 cells (65 pM GM-CSF, n = 2) [9]: 501 pM
IC50 (pM), inhibition of GM-CSF induced IL-8 secretion in U937 cells (65 pM GM-CSF, n = 2) [10]: 257 pM
IC50 (pM), inhibition of GM-CSF induced IL-8 secretion in U937 cells (65 pM GM-CSF, n = 2) [11]: 181 pM
Emax (%), inhibition of CD11b upregulation on neutrophils [14]: 84%
IC50 (nM), inhibition of CD11b upregulation on neutrophils [14]: 1.65 nM
Emax (%), inhibition of CD11b upregulation on neutrophils [15]: 97%
IC50 (nM), inhibition of CD11b upregulation on neutrophils [15]: 1.98 nM
binding result (human GM-CSF A117 mutant): binds
Kd [6]: 0.011 nM
Kd [7]: 0.004 nM
Kd [8]: 0.007 nM

More lines, now with the values ahead:

Fold improvement of humanized parental 4K21 on macaca (TF-1 proliferation IC50) [1]: 0.7 fold
Fold macaca/human I117 (TF-1 proliferation IC50) [1]: 9.3 fold
IC50 (pM), inhibition of GM-CSF induced TF-1 proliferation (32 pM GM-CSF, average n = 3) [1]: 1220 pM
Fold improvement of humanized parental 4K21 on I117 (TF-1 proliferation IC50) [2]: 0.9 fold
IC50 (pM), inhibition of GM-CSF induced TF-1 proliferation (32 pM GM-CSF, average n = 3) [2]: 130 pM
Fold human T117/I117 (TF-1 proliferation IC50) [3]: 10.8 fold
Fold improvement of humanized parental 4K21 on T117 (TF-1 proliferation IC50) [3]: 1 fold
IC50 (pM), inhibition of GM-CSF induced TF-1 proliferation (32 pM GM-CSF, average n = 3) [3]: 1410 pM
fold affinity difference between the 2 hGM-CSF isoforms and the macaca ortholog [4]: ≤ 10 fold
fold preference for GM-CSF I117 versus T117 [5]: > 10 fold
Kd [6]: 0.104 nM
Kd [7]: 0.017 nM
Kd [8]: 0.174 nM
B1: anti-GM-CSF 4K21 hIgG1 K antibody (MSB0010259), recombinant chimeric 4K21 (antibody, V domains shown)
VH: EVQLVESGGGLVKSGGSLKLSCAASGFAFSAYDMSWVRQTPEKRLELVAYISSGGSSFYYPDTVKGRFTISRDNAKNTLYLQMSSLKSEDTAMYYCTRHLGFDYWGQGTTLTVSS
VL: DVVMTQTPLSLPVSLGDQASISCRSSQSLVNSNGNTYLHWFLQKPGQSPKLLIYKVSNRFSGVPDRFSGSGSGTDFTLKISRVEAEDLGVYFCSQSTHVPPTFGGGTKLEIK
notes: Murine variable domains fused to human constant IgG1 heavy chain and kappa light chain domains; also called parental chimeric 4K21

fold preference for GM-CSF I117 versus T117 [5]: > 10 fold
B2: murine hybridoma-derived 4K21 antibody (antibody, V domains shown)
VH: B1 VH
VL: B1 VL
notes: also called murine 4K21; murine monoclonal antibody 4K21
